Test [1] concerns the target T1, CD33 (Sino Biological, Cat #12238-H08H) (UniProt P20138 18-259). Kind of test: BLI, IgG captured on anti-human Fc biosensor, CD33 at low pH or high pH. A general note: Biolayer interferometry detects binding as a change in optical thickness at a sensor tip.
Test [2] deals with T1, CD33 (Sino Biological, Cat #12238-H08H). Kind of test: BLI, IgG captured on anti-human Fc sensor, pH 7.4 and pH 5.4.

The results in this text go back to patent publication US20220324969A1 (MYTHIC THERAPEUTICS, published 2022).

T1 sequence (P20138 18-259 limits assumed): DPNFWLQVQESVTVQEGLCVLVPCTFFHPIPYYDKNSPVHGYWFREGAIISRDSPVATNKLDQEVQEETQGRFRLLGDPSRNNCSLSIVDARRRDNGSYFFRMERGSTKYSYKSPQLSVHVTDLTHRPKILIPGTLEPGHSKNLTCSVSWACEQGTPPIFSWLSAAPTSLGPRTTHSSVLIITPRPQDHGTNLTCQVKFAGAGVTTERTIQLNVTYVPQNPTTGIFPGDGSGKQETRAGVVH

B1: IMGN779 (antibody, V domains shown)
VH: QVQLQQPGAEVVKPGASVKMSCKASGYTFTSYYIHWIKQTPGQGLEWVGVIYPGNDDISYNQKFQGKATLTADKSSTTAYMQLSSLTSEDSAVYYCAREVRLRYFDVWGQGTTVTVSS
VL: EIVLTQSPGSLAVSPGERVTMSCKSSQSVFFSSSQKNYLAWYQQIPGQSPRLLIYWASTRESGVPDRFTGSGSGTDFTLTISSVQPEDLAIYYCHQYLSSRTFGQGTKLEIK
notes: Unconjugated IgG from Expi293 supernatant; entries called heavy/light chain are variable domains; also called MYT1212; IMGN779 starting ABPC
Turning to B1, the binding result in test [1] is reported as “binds”.

B2: Vadastuximab (antibody, V domains shown)
VH: QVQLVQSGAEVKKPGASVKVSCKASGYTFTNYDINWVRQAPGQGLEWIGWIYPGDGSTKYNEKFKAKATLTADTSTSTAYMELRSLRSDDTAVYYCASGYEDAMDYWGQGTTVTVSS
VL: DIQMTQSPSSLSASVGDRVTINCKASQDINSYLSWFQQKPGKAPKTLIYRANRLVDGVPSRFSGSGSGQDYTLTISSLQPEDFATYYCLQYDEFPLTFGGGTKVEIK
notes: IgG from Expi293 supernatant; entries called heavy/light chain are variable domains; also called MYT1334; vadastuximab starting ABPC
Take B2: in test [1], the binding result is on record as “binds”.

B3: MYT2661 (antibody, V domains shown)
VH: QVQLVQSGAEVKKPGASVKVSCKASGYTFTNYDINWVRQAPGQGLEWIGWIYPGDGSTKYNEKFKAKATLTADTSTSTAYMELRSLRSDDTAVYYCASGYEDAMDYWGQGTTVTVSS
VL: DIQMTQSPSSLSASVGDRVTINCKASQDINSHLSWFQQKPGKAPKTLIYRANRLVDGVPSRFSGSGSGQDYTLTISSLQPEDFATYYCLQYDEFPLTFGGGTKVEIK
notes: IgG; vadastuximab VL variant #9 (Y32H)
Regarding B3, the binding result in test [2] is given as “no binding (tested: 50 nM CD33)”.

B4: MYT2663 (antibody, V domains shown)
VH: QVQLVQSGAEVKKPGASVKVSCKASGYTFTNYDINWVRQAPGQGLEWIGWIYPGDGSTKYNEKFKAKATLTADTSTSTAYMELRSLRSDDTAVYYCASGYEDAMDYWGQGTTVTVSS
VL: DIQMTQSPSSLSASVGDRVTINCKASQDINSYLHWFQQKPGKAPKTLIYRANRLVDGVPSRFSGSGSGQDYTLTISSLQPEDFATYYCLQYDEFPLTFGGGTKVEIK
notes: IgG; vadastuximab VL variant #11 (S34H)
With B4, the binding result in test [2] is “no binding (tested: 50 nM CD33)”.

B5: MYT1364 (antibody, V domains shown)
VH: QVQLVQSGAEVKKPGASVKVSCKASGYTFTNYDINWVRQAPGQGLEWIGWIYPGDGSTKYNEKFKAKATLTADTSTSTAYMELRSLRSDDTAVYYCASHYEDAMDYWGQGTTVTVSS
VL: DIQMTQSPSSLSASVGDRVTINCKASQDINSYLSWFQQKPGKAPKTLIYRANRLVDGVPSRFSGSGSGQDYTLTISSLQPEDFATYYCLQYDEFPLTFGGGTKVEIK
notes: IgG; vadastuximab VH variant #30 (G99H)
For the molecule B5, in test [2], the binding result was “no binding (tested: 50 nM CD33)”.

B6: MYT1362 (antibody, V domains shown)
VH: QVQLVQSGAEVKKPGASVKVSCKASGYTFTNYDINWVRQAPGQGLEWIGWIYPGDGSTKYNEKFKAKATLTADTSTSTAYMELRSLRSDDTAVYYCHSGYEDAMDYWGQGTTVTVSS
VL: DIQMTQSPSSLSASVGDRVTINCKASQDINSYLSWFQQKPGKAPKTLIYRANRLVDGVPSRFSGSGSGQDYTLTISSLQPEDFATYYCLQYDEFPLTFGGGTKVEIK
notes: IgG; vadastuximab VH variant #28 (A97H)
Take B6: in test [2], the binding result is on record as “no binding (tested: 50 nM CD33)”.

B7: MYT2673 (antibody, V domains shown)
VH: QVQLVQSGAEVKKPGASVKVSCKASGYTFTNYDINWVRQAPGQGLEWIGWIYPGDGSTKYNEKFKAKATLTADTSTSTAYMELRSLRSDDTAVYYCASGYEDAMDYWGQGTTVTVSS
VL: DIQMTQSPSSLSASVGDRVTINCKASQDINSYLSWFQQKPGKAPKTLIYRANRLVDGVPSRFSGSGSGQDYTLTISSLQPEDFATYYCLQHDEFPLTFGGGTKVEIK
notes: IgG; vadastuximab VL variant #21 (Y91H)
B7: the binding result in test [2] is “no binding (tested: 50 nM CD33)”.

B8: MYT2678 (antibody, V domains shown)
VH: QVQLVQSGAEVKKPGASVKVSCKASGYTFTNYDINWVRQAPGQGLEWIGWIYPGDGSTKYNEKFKAKATLTADTSTSTAYMELRSLRSDDTAVYYCASGYEDAMDYWGQGTTVTVSS
VL: DIQMTQSPSSLSASVGDRVTINCKASQDINSYLSWFQQKPGKAPKTLIYRANRLVDGVPSRFSGSGSGQDYTLTISSLQPEDFATYYCLQYDEFPHTFGGGTKVEIK
notes: IgG; vadastuximab VL variant #26 (L96H)
Turning to B8, in test [2], the binding result was “no binding (tested: 50 nM CD33)”.
